Reference: patent publication US6919086B1, “Graminae pollen allergen mutants for specific immunotherapy, and production and use of the same” (Merck Patent Gesellschaft mit, priority 1997, dated 2005)
Residue numbers refer to the chain shown, from its start. Names may count otherwise. “Also recorded” adds a separate entry of the source.

B1: DM1: deletion mutant of rPhl p 5b (ΔK50-P132, D49→L), SEQ ID NO 91 (protein)
chain: ADAGYAPATPAAAGAAAGKATTEEQKLIEDINVGFKAAVAAAASVPAALAGELQIIDKIDAAFKVAATAAATAPADDKFTVFEAAFNKAIKESTGGAYDTYKCIPSLEAAVKQAYAATVAAAPQVKYAVFEAALTKAITAMSEVQKVSQPATGAATVAAGAATTAAGAASGAATVAAGGYKV
B2: rPhl p 5b deletion mutant DM3 (deletion A154-T177, A220T) (protein)
chain: ADAGYAPATPAAAGAAAGKATTEEQKLIEDINVGFKAAVAAAASVPAADKFKTFEAAFTSSSKAAAAKAPGLVPKLDAAYSVAYKAAVGATPEAKFDSFVASLTEALRVIAGALEVHAVKPVTEEPGMAKIPAGELQIIDKIDAAFKVAATAAGGAYDTYKCIPSLEAAVKQAYAATVAAAPQVKYAVFEAALTKTITAMSEVQKVSQPATGAATVAAGAATTAAGAASGAATVAAGGYKV
B3: rPhl p 5b point mutant PM1 (N32D, D49L, K50A) (protein)
chain: ADAGYAPATPAAAGAAAGKATTEEQKLIEDIDVGFKAAVAAAASVPAALAFKTFEAAFTSSSKAAAAKAPGLVPKLDAAYSVAYKAAVGATPEAKFDSFVASLTEALRVIAGALEVHAVKPVTEEPGMAKIPAGELQIIDKIDAAFKVAATAAATAPADDKFTVFEAAFNKAIKESTGGAYDTYKCIPSLEAAVKQAYAATVAAAPQVKYAVFEAALTKAITAMSEVQKVSQPATGAATVAAGAATTAAGAASGAATVAAGGYKV
B4: rPhl p 5b point mutant PM3 (A13C) (protein)
chain: B3 chain with A13C, D32N, L49D, A50K

tested on: IgE antibodies of allergic patients; assay: EAST inhibition test (IgE reactivity / allergenicity); format: binding, human; settings: all serum pools and individual sera, Prel values
Experimental: The effects of the induced mutations on the allergenicity, i.e. the ability to bind to the IgE antibodies of allergic patients, of the modified recombinant allergens is determined qualitatively and quantitatively by means of the EAST inhibition test. […] The extent of the immunochemical relatedness (cross reactivity) can also be quantified. This EAST inhibition test only takes the reaction with IgE antibodies into account.
The binding of the allergens by the IgE antibodies is the basic prerequisite for the allergen-specific activation of the effector cells (mast cells, basophils, inter alia) in type I allergy. The allergen-specific inhibition of the enzyme/allergen sorbent test (EAST) is the best means for qualitatively and quantitatively recording the binding of the allergens to IgE anti-bodies. The EAST inhibition test is carried out as follows. Microtitre plates are coated with allergen (natural or recombinant Ph1 p 5 or Ph1 p 5b) (1 μg/ml). After the unbound allergen molecules have been removed by washing, non-specific plastic binding sites are blocked with bovine serum albumin (0.5%). […] from allergic patients, as a representative pool of 10-30 donors or as an individual serum, is incubated, in a suitable dilution, with the allergen-coated microtritre plates. The bound allergen-specific IgE antibodies are quantified using enzyme-coupled anti-IgE antibodies (e.g. alk. phosphatase-a-IgE antibodies). This binding is inhibited by soluble allergen or the substance to be tested (allergen mutants) in dependence on the concentration. The inhibition curve obtained with the purified natural allergen Ph1 p 5b is used as the reference.

Row | Molecule | Allergenicity / IgE reactivity, overall assessment (in words)
1 | B1 | marked reduction in allergenicity; also recorded: greatly reduced, it is still detectable
2 | B2 | marked reduction in allergenicity; also recorded: greatly reduced, it is still detectable

same assay, conditions: allergic patient serum pool Bor 18/100

Row | Molecule | Inhibition value 25% (concentration of the inhibitor at 25% inhibition) [mol/L]
3 | B1 | 8.6e-09
4 | B2 | 1.2e-09
5 | B3 | 4.5e-10
6 | B4 | 2e-10

same assay, conditions: allergic patient serum pool Bor 18/100; read-out: Inhibition value 50% (concentration of the inhibitor at 50% inhibition)

Row | Molecule | IC50 [µM]
7 | B1 | 0.028
8 | B2 | 4.1
9 | B3 | 0.012
10 | B4 | 0.0048

same assay, conditions: allergic patient serum pool We 6/97

Row | Molecule | Inhibition value 25% (concentration of the inhibitor at 25% inhibition) [mol/L]
11 | B1 | 2.3e-08
12 | B2 | 5.1e-09
13 | B3 | 1.2e-09
14 | B4 | 8.3e-10

same assay, conditions: allergic patient serum pool We 6/97; read-out: Inhibition value 50% (concentration of the inhibitor at 50% inhibition)

Row | Molecule | IC50 [µM]
15 | B1 | 17
16 | B2 | 0.029
17 | B3 | 0.12
18 | B4 | 0.03

same assay, conditions: individual allergic patient serum II/3

Row | Molecule | Inhibition value 25% (concentration of the inhibitor at 25% inhibition) [mol/L]
19 | B1 | 1.2e-08
20 | B2 | 1.1e-06
21 | B3 | 8.6e-10
22 | B4 | 5.5e-10

same assay, conditions: individual allergic patient serum II/3; read-out: Inhibition value 50% (concentration of the inhibitor at 50% inhibition)

Row | Molecule | IC50 [µM]
23 | B1 | 0.017
24 | B2 | 32000
25 | B3 | 0.019
26 | B4 | 0.015

same assay, conditions: individual allergic patient serum II/12

Row | Molecule | Inhibition value 25% (concentration of the inhibitor at 25% inhibition) [mol/L]
27 | B1 | 1.5e-05
28 | B2 | 4.5e-09
29 | B3 | 1.3e-09
30 | B4 | 1.3e-09

same assay, conditions: individual allergic patient serum II/12; read-out: Inhibition value 50% (concentration of the inhibitor at 50% inhibition)

Row | Molecule | IC50 [µM]
31 | B2 | 100
32 | B3 | 0.083
33 | B4 | 0.091

same assay, conditions: individual allergic patient serum II/17

Row | Molecule | Inhibition value 25% (concentration of the inhibitor at 25% inhibition) [mol/L]
34 | B1 | 6.5e-09
35 | B2 | 5.6e-09
36 | B3 | 6.4e-10
37 | B4 | 2.5e-10

same assay, conditions: individual allergic patient serum II/17; read-out: Inhibition value 50% (concentration of the inhibitor at 50% inhibition)

Row | Molecule | IC50 [µM]
38 | B1 | 0.002
39 | B2 | 0.05
40 | B3 | 0.0022
41 | B4 | 0.0055

same assay, conditions: relative to native Phl p 5b at 25% inhibition; individual serum II/3

Row | Molecule | Allergenic potency (Prel) 25%
42 | B1 | 0.0420
43 | B2 | 0.0004
44 | B3 | 0.5950
45 | B4 | 0.9220

same assay, conditions: relative to native Phl p 5b at 25% inhibition; individual serum II/12

Row | Molecule | Allergenic potency (Prel) 25%
46 | B1 | 3.4 × 10^−5
47 | B2 | 0.012
48 | B3 | 0.391
49 | B4 | 0.389

same assay, conditions: relative to native Phl p 5b at 25% inhibition; individual serum II/17

Row | Molecule | Allergenic potency (Prel) 25%
50 | B1 | 0.033
51 | B2 | 0.038
52 | B3 | 0.336
53 | B4 | 0.855

same assay, conditions: relative to native Phl p 5b at 25% inhibition; serum pool Bor 18/100

Row | Molecule | Allergenic potency (Prel) 25%
54 | B1 | 0.039
55 | B2 | 0.028
56 | B3 | 0.739
57 | B4 | 1.641

same assay, conditions: relative to native Phl p 5b at 25% inhibition; serum pool We 6/97

Row | Molecule | Allergenic potency (Prel) 25%
58 | B1 | 0.022
59 | B2 | 0.099
60 | B3 | 0.415
61 | B4 | 0.611

same assay, conditions: relative to native Phl p 5b at 50% inhibition; individual serum II/3

Row | Molecule | Allergenic potency (Prel) 50%
62 | B1 | 0.0035
63 | B2 | 1.8 × 10^−7
64 | B3 | 0.3140
65 | B4 | 0.3990

same assay, conditions: relative to native Phl p 5b at 50% inhibition; individual serum II/12

Row | Molecule | Allergenic potency (Prel) 50%
66 | B1 | 1.0 × 10^−10
67 | B2 | 5.7 × 10^−5
68 | B3 | 0.082
69 | B4 | 0.075

same assay, conditions: relative to native Phl p 5b at 50% inhibition; individual serum II/17

Row | Molecule | Allergenic potency (Prel) 50%
70 | B1 | 0.0010
71 | B2 | 0.0005
72 | B3 | 0.1190
73 | B4 | 0.4680

same assay, conditions: relative to native Phl p 5b at 50% inhibition; serum pool Bor 18/100

Row | Molecule | Allergenic potency (Prel) 50%
74 | B1 | 0.0015
75 | B2 | 0.0001
76 | B3 | 0.3490
77 | B4 | 0.8640

same assay, conditions: relative to native Phl p 5b at 50% inhibition; serum pool We 6/97

Row | Molecule | Allergenic potency (Prel) 50%
78 | B1 | 0.0004
79 | B2 | 0.0020
80 | B3 | 0.0510
81 | B4 | 0.2030

same assay, conditions: serum pool Bor 18/100 (20 donors), FIG. 1

Row | Molecule | EAST inhibition curve / inhibitory effect (in words)
82 | B1 | markedly decreased inhibitory effect
83 | B2 | markedly decreased inhibitory effect
84 | B3 | exhibits this effect in the higher range to a somewhat greater degree
85 | B4 | binding curves which are similar to that obtained with natural Ph1 p 5b

same assay, conditions: serum pool We 6/97 and individual sera II3, II12, II17, FIGS. 2-5

Row | Molecule | Allergenicity from EAST inhibition curves (in words)
86 | B1 | greatly reduced allergenicity
87 | B2 | greatly reduced allergenicity
88 | B3 | either no reduction, or only a reduction which is for the most part slight
89 | B4 | either no reduction, or only a reduction which is for the most part slight

target: IgE antibodies of the allergic patient serum pool We 6/97; assay: EAST inhibition, serum pool We 6/97; settings: not given

Row | Molecule | IC50 [µM] | allergenic potency (Prel) at 25% inhibition (relative to native Phl p 5b) | allergenic potency (Prel) at 50% inhibition (relative to native Phl p 5b) | inhibition value (inhibitor concentration at 25% inhibition) [mol/L]
90 | B2 | 0.029 | 0.099 | 0.002 | 5.1e-09
91 | B3 | 0.12 | 0.415 | 0.051 | 1.2e-09
92 | B4 | 0.03 | 0.611 | 0.203 | 8.3e-10

tested on: basophils from the blood of an allergic patient; assay: Histamine release from basophils; format: cell-based, human; settings: not given
Experimental: Apart from the binding of the allergen to the spec. IgE, the allergen-induced, IgE-mediated release of histamine by allergic effect or cells is of pathophysiological importance for the allergic reaction (side effect). The reactivity of the effector cells (basophils and mast cells) and the epitope specificity of the IgE antibodies which are bound by way of FcεRI are also of importance in this context. For this reason, the modified recombinant allergen variants are tested for their ability to induce histamine release by the degranulation of IgE-loaded basophils which are isolated from the blood of allergic patients.
Before the histamine release test was carried out, the basophilic leucocytes from the EDTA blood of an allergic patient ([…]) were first of all enriched by means of dextran sedimentation and then adjusted to a final concentration of 100,000 basophils/ml. In order to release histamine from the basophils, 200 μl of the cell suspension were in each case incubated, at 37° C. for 40 min, with 50 μl of antigen solution. For this, the rPh1 […] p 5b and the mutants were employed in varying concentrations (of 10^−5-10^−12 M). The histamine which was released was determined in the respective supernatants using the Pharmacia methylhistamine RIA in accordance with the manufacturer's instructions.

Row | Molecule | Concentration required to bring about a 30% histamine release, fold higher than wild type rPhl p 5b [fold]
93 | B1 | 20
94 | B2 | 3

target: specific IgE on basophils from the blood of allergic patient; assay: cell-based or functional assay; settings: not given

Row | Molecule | concentration required to bring about a 30% histamine release from basophils, against wild type rPh1 p 5b [fold higher]
95 | B2 | 3
